The values below come from paper PMC9860674.

This test concerns the target Tle3^AIEC (type VI lipase effector 3 of adherent-invasive Escherichia coli LF82) (Escherichia coli AIEC LF82). Nature of the test: SEC; purified Tle3 and Tli3 mixed at a molar ratio of 1:1.3; Superdex 200 16/60 in Hepes 10 mM pH 6.8, NaCl 150 mM; apparent molecular mass 100 kDa against a theoretical 101.9 kDa. For orientation: In gel filtration, larger molecules generally elute earlier.

As a reminder, the stoichiometry N is a count of units in the complex or per binding partner. As for “Tli3^AIEC (type VI lipase immunity protein 3 of adherent-invasive Escherichia coli LF82) (natural protein)”, the stoichiometry N was determined as 1.
